In PMC8242953, “Immune Tolerance-Adjusted Personalized Immunogenicity Prediction for Pompe Disease” (Frontiers in Immunology, 2021):

Assays:
[1] = Anti-rhGAA IgG antibody (ADA) titers in IOPD subjects on ERT; type: in vivo, human
Protocol: Children with a confirmed diagnosis of IOPD were enrolled in Duke University Medical Centers. IOPD was defined as the presence of hypertrophic cardiomyopathy in the first year of life. […] Clinical data including CRIM status, GAA variants, GAA enzyme activity, age at ERT initiation, and longitudinal anti-rhGAA IgG antibody titers were extracted from medical records ( Supplementary Table S1 ).
ADA titers were determined by Sanofi Genzyme using enzyme-linked immunosorbent assays (ELISA) and confirmed using radioimmunoprecipitation as described previously ([6]). Subjects whose ADA titers repeatedly exceed 51,200 after more than 6-months on rhGAA were classified as high and sustained antibody titers (HSAT) ([5], [11]). Subjects whose ADA titers fell between 12,800 and 51,200 within the first year of ERT were classified as sustained intermediate titers (SIT). Based on ADA titers, subjects were stratified into two groups; 1) High ADA, subjects who developed ADA titers in HSAT or SIT range (≥12,800) and 2) Low ADA, subjects who maintained ADA titers of ≤6,400.

[2] = CRIM-positive IOPD children on ERT; ref [5]; cited from earlier work
Source text: The development of ADA to rhGAA is influenced by the presence or absence of endogenous GAA, defined as cross-reactive immunologic material (CRIM). Individuals who are CRIM-negative have a complete absence of GAA and are at the highest risk of ADA, whereas those who are CRIM-positive may be more immune tolerant to ERT, due to prior exposure to endogenous GAA ([4]). However, one-third of CRIM-positive IOPD children still develop high and sustained or intermediate ADA titers, putting them at risk for clinical decline similar to CRIM-negative individuals ([5]). All CRIM-negative patients develop H ...

alglucosidase alfa [rhGAA]
subjects who developed high ADA titers ([1]; 19 of 48 CRIM-positive IOPD subjects on rhGAA ERT without ITI, high ADA = HSAT or SIT, titers ≥12,800): 40%
subjects who developed low ADA titers ([1]; 29 of 48 CRIM-positive IOPD subjects on rhGAA ERT without ITI, low ADA = titers ≤6,400): 60%
share of CRIM-positive IOPD children who develop high and sustained or intermediate ADA titers [2]: one-third
